In US20190112393 (published 2019):

Molecular target: human FcRn (human)
Assay: SPR, pH 6.0

| Kd | Binder |
| --- | --- |
| 130 nM | F1382 (antibody) chain 1: QVQLQESGPGLVKPSETLSLTCAVSGHSISHDHAWSWVRQPPGEGLEWIGFISYSGITNYNPSLQGRVTISRDNSKNTLYLQMNSLRAEDTAVYYCARSLARTTAMDYWGEGTLVTVSSASTKGPSVFPLAPSSKSTSGGTAALGCLVKDYFPEPVTVSWNSGALTSGVHTFPAVLQSSGLYSLSSVVTVPSSSLGTQTYICNVNHKPSNTKVDKKVEPKSCDKTHTCPPCPAPELLGGPSVFLFPPKPKDTLMISRTPEVTCVVVDVSHEDPEVKFNWYVDGVEVHNAKTKPREEQYNSTYRVVSVLTVLHQDWLNGKEYKCKVSNKALPAPIEKTISKAKGQPREPQVYTLPPSRDELTKNQVSLTCLVKGFYPSDIAVEWESNGQPENNYKTTPPVLDSDGSFFLYSKLTVDKSRWQQGNVFSCKVLHEALHSHYTQKSLSLSP chain 2: DIQMTQSPSSLSASVGDSVTITCQASTDISSHLNWYQQKPGKAPELLIYYGSHLLSGVPSRFSGSGSGTDFTFTISSLEAEDAATYYCGQGNRLPYTFGQGTKVEIERTVAAPSVFIFPPSDEQLKSGTASVVCLLNNFYPREAKVQWKVDNALQSGNSQESVTEQDSKDSTYSLSSTLTLSKADYEKHKVYACEVTHQGLSSPVTKSFNRGEC |
| 86 nM | F1381 (antibody) chain 1: QVQLQESGPGLVKPSETLSLTCAVSGHSISHDHAWSWVRQPPGEGLEWIGFISYSGITNYNPSLQGRVTISRDNSKNTLYLQMNSLRAEDTAVYYCARSLARTTAMDYWGEGTLVTVSSASTKGPSVFPLAPSSKSTSGGTAALGCLVKDYFPEPVTVSWNSGALTSGVHTFPAVLQSSGLYSLSSVVTVPSSSLGTQTYICNVNHKPSNTKVDKKVEPKSCDKTHTCPPCPAPELLGGPSVFLFPPKPKDTLMISRTPEVTCVVVDVSHEDPEVKFNWYVDGVEVHNAKTKPREEQYNSTYRVVSVLTVLHQDWLNGKEYKCKVSNKALPAPIEKTISKAKGQPREPQVYTLPPSRDELTKNQVSLTCLVKGFYPSDIAVEWESNGQPENNYKTTPPVLDSDGSFFLYSKLTVDKSRWQQGNVFSCEVLHEALHSHYTQKSLSLSP chain 2: DIQMTQSPSSLSASVGDSVTITCQASTDISSHLNWYQQKPGKAPELLIYYGSHLLSGVPSRFSGSGSGTDFTFTISSLEAEDAATYYCGQGNRLPYTFGQGTKVEIERTVAAPSVFIFPPSDEQLKSGTASVVCLLNNFYPREAKVQWKVDNALQSGNSQESVTEQDSKDSTYSLSSTLTLSKADYEKHKVYACEVTHQGLSSPVTKSFNRGEC |
| 420 nM | F1391 (antibody) chain 1: QVQLQESGPGLVKPSETLSLTCAVSGHSISHDHAWSWVRQPPGEGLEWIGFISYSGITNYNPSLQGRVTISRDNSKNTLYLQMNSLRAEDTAVYYCARSLARTTAMDYWGEGTLVTVSSASTKGPSVFPLAPSSKSTSGGTAALGCLVKDYFPEPVTVSWNSGALTSGVHTFPAVLQSSGLYSLSSVVTVPSSSLGTQTYICNVNHKPSNTKVDKKVEPKSCDKTHTCPPCPAPELLGGPSVFLFPPKPKDTLMISRTPEVTCVVVDVSHEDPEVKFNWYVDGVEVHNAKTKPREEQYNSTYRVVSVLTVLHQDWLNGKEYKCKVSNKALPAPIEKTISKAKGQPREPQVYTLPPSRDELTKNQVSLTCLVKGFYPSDIAVEWESNGQPENNYKTTPPVLDSDGSFFLYSKLTVDKSRWQQGNVFSCSVLHEALHSHNTQKSLSLSP chain 2: DIQMTQSPSSLSASVGDSVTITCQASTDISSHLNWYQQKPGKAPELLIYYGSHLLSGVPSRFSGSGSGTDFTFTISSLEAEDAATYYCGQGNRLPYTFGQGTKVEIERTVAAPSVFIFPPSDEQLKSGTASVVCLLNNFYPREAKVQWKVDNALQSGNSQESVTEQDSKDSTYSLSSTLTLSKADYEKHKVYACEVTHQGLSSPVTKSFNRGEC |
| 150 nM | F1387 (antibody) chain 1: QVQLQESGPGLVKPSETLSLTCAVSGHSISHDHAWSWVRQPPGEGLEWIGFISYSGITNYNPSLQGRVTISRDNSKNTLYLQMNSLRAEDTAVYYCARSLARTTAMDYWGEGTLVTVSSASTKGPSVFPLAPSSKSTSGGTAALGCLVKDYFPEPVTVSWNSGALTSGVHTFPAVLQSSGLYSLSSVVTVPSSSLGTQTYICNVNHKPSNTKVDKKVEPKSCDKTHTCPPCPAPELLGGPSVFLFPPKPKDTLMISRTPEVTCVVVDVSHEDPEVKFNWYVDGVEVHNAKTKPREEQYNSTYRVVSVLTVLHQDWLNGKEYKCKVSNKALPAPIEKTISKAKGQPREPQVYTLPPSRDELTKNQVSLTCLVKGFYPSDIAVEWESNGQPENNYKTTPPVLDSDGSFFLYSKLTVDKSRWQQGNVFSCSVLHEALHSHMTQKSLSLSP chain 2: DIQMTQSPSSLSASVGDSVTITCQASTDISSHLNWYQQKPGKAPELLIYYGSHLLSGVPSRFSGSGSGTDFTFTISSLEAEDAATYYCGQGNRLPYTFGQGTKVEIERTVAAPSVFIFPPSDEQLKSGTASVVCLLNNFYPREAKVQWKVDNALQSGNSQESVTEQDSKDSTYSLSSTLTLSKADYEKHKVYACEVTHQGLSSPVTKSFNRGEC |
| 160 nM | F1386 (antibody) chain 1: QVQLQESGPGLVKPSETLSLTCAVSGHSISHDHAWSWVRQPPGEGLEWIGFISYSGITNYNPSLQGRVTISRDNSKNTLYLQMNSLRAEDTAVYYCARSLARTTAMDYWGEGTLVTVSSASTKGPSVFPLAPSSKSTSGGTAALGCLVKDYFPEPVTVSWNSGALTSGVHTFPAVLQSSGLYSLSSVVTVPSSSLGTQTYICNVNHKPSNTKVDKKVEPKSCDKTHTCPPCPAPELLGGPSVFLFPPKPKDTLMISRTPEVTCVVVDVSHEDPEVKFNWYVDGVEVHNAKTKPREEQYNSTYRVVSVLTVLHQDWLNGKEYKCKVSNKALPAPIEKTISKAKGQPREPQVYTLPPSRDELTKNQVSLTCLVKGFYPSDIAVEWESNGQPENNYKTTPPVLDSDGSFFLYSKLTVDKSRWQQGNVFSCYVLHEALHSHYTQKSLSLSP chain 2: DIQMTQSPSSLSASVGDSVTITCQASTDISSHLNWYQQKPGKAPELLIYYGSHLLSGVPSRFSGSGSGTDFTFTISSLEAEDAATYYCGQGNRLPYTFGQGTKVEIERTVAAPSVFIFPPSDEQLKSGTASVVCLLNNFYPREAKVQWKVDNALQSGNSQESVTEQDSKDSTYSLSSTLTLSKADYEKHKVYACEVTHQGLSSPVTKSFNRGEC |
| 68 nM | F1389 (antibody) chain 1: QVQLQESGPGLVKPSETLSLTCAVSGHSISHDHAWSWVRQPPGEGLEWIGFISYSGITNYNPSLQGRVTISRDNSKNTLYLQMNSLRAEDTAVYYCARSLARTTAMDYWGEGTLVTVSSASTKGPSVFPLAPSSKSTSGGTAALGCLVKDYFPEPVTVSWNSGALTSGVHTFPAVLQSSGLYSLSSVVTVPSSSLGTQTYICNVNHKPSNTKVDKKVEPKSCDKTHTCPPCPAPELLGGPSVFLFPPKPKDTLMISRTPEVTCVVVDVSHEDPEVKFNWYVDGVEVHNAKTKPREEQYNSTYRVVSVLTVLHQDWLNGKEYKCKVSNKALPAPIEKTISKAKGQPREPQVYTLPPSRDELTKNQVSLTCLVKGFYPSDIAVEWESNGQPENNYKTTPPVLDSDGSFFLYSKLTVDKSRWQQGNVFSCSVLHEALHSHTTQKSLSLSP chain 2: DIQMTQSPSSLSASVGDSVTITCQASTDISSHLNWYQQKPGKAPELLIYYGSHLLSGVPSRFSGSGSGTDFTFTISSLEAEDAATYYCGQGNRLPYTFGQGTKVEIERTVAAPSVFIFPPSDEQLKSGTASVVCLLNNFYPREAKVQWKVDNALQSGNSQESVTEQDSKDSTYSLSSTLTLSKADYEKHKVYACEVTHQGLSSPVTKSFNRGEC |
| 86 nM | F1384 (antibody) chain 1: QVQLQESGPGLVKPSETLSLTCAVSGHSISHDHAWSWVRQPPGEGLEWIGFISYSGITNYNPSLQGRVTISRDNSKNTLYLQMNSLRAEDTAVYYCARSLARTTAMDYWGEGTLVTVSSASTKGPSVFPLAPSSKSTSGGTAALGCLVKDYFPEPVTVSWNSGALTSGVHTFPAVLQSSGLYSLSSVVTVPSSSLGTQTYICNVNHKPSNTKVDKKVEPKSCDKTHTCPPCPAPELLGGPSVFLFPPKPKDTLMISRTPEVTCVVVDVSHEDPEVKFNWYVDGVEVHNAKTKPREEQYNSTYRVVSVLTVLHQDWLNGKEYKCKVSNKALPAPIEKTISKAKGQPREPQVYTLPPSRDELTKNQVSLTCLVKGFYPSDIAVEWESNGQPENNYKTTPPVLDSDGSFFLYSKLTVDKSRWQQGNVFSCAVLHEALHSHYTQKSLSLSP chain 2: DIQMTQSPSSLSASVGDSVTITCQASTDISSHLNWYQQKPGKAPELLIYYGSHLLSGVPSRFSGSGSGTDFTFTISSLEAEDAATYYCGQGNRLPYTFGQGTKVEIERTVAAPSVFIFPPSDEQLKSGTASVVCLLNNFYPREAKVQWKVDNALQSGNSQESVTEQDSKDSTYSLSSTLTLSKADYEKHKVYACEVTHQGLSSPVTKSFNRGEC |
| 160 nM | F1383 (antibody) chain 1: QVQLQESGPGLVKPSETLSLTCAVSGHSISHDHAWSWVRQPPGEGLEWIGFISYSGITNYNPSLQGRVTISRDNSKNTLYLQMNSLRAEDTAVYYCARSLARTTAMDYWGEGTLVTVSSASTKGPSVFPLAPSSKSTSGGTAALGCLVKDYFPEPVTVSWNSGALTSGVHTFPAVLQSSGLYSLSSVVTVPSSSLGTQTYICNVNHKPSNTKVDKKVEPKSCDKTHTCPPCPAPELLGGPSVFLFPPKPKDTLMISRTPEVTCVVVDVSHEDPEVKFNWYVDGVEVHNAKTKPREEQYNSTYRVVSVLTVLHQDWLNGKEYKCKVSNKALPAPIEKTISKAKGQPREPQVYTLPPSRDELTKNQVSLTCLVKGFYPSDIAVEWESNGQPENNYKTTPPVLDSDGSFFLYSKLTVDKSRWQQGNVFSCRVLHEALHSHYTQKSLSLSP chain 2: DIQMTQSPSSLSASVGDSVTITCQASTDISSHLNWYQQKPGKAPELLIYYGSHLLSGVPSRFSGSGSGTDFTFTISSLEAEDAATYYCGQGNRLPYTFGQGTKVEIERTVAAPSVFIFPPSDEQLKSGTASVVCLLNNFYPREAKVQWKVDNALQSGNSQESVTEQDSKDSTYSLSSTLTLSKADYEKHKVYACEVTHQGLSSPVTKSFNRGEC |
| 400 nM | F1390 (antibody) chain 1: QVQLQESGPGLVKPSETLSLTCAVSGHSISHDHAWSWVRQPPGEGLEWIGFISYSGITNYNPSLQGRVTISRDNSKNTLYLQMNSLRAEDTAVYYCARSLARTTAMDYWGEGTLVTVSSASTKGPSVFPLAPSSKSTSGGTAALGCLVKDYFPEPVTVSWNSGALTSGVHTFPAVLQSSGLYSLSSVVTVPSSSLGTQTYICNVNHKPSNTKVDKKVEPKSCDKTHTCPPCPAPELLGGPSVFLFPPKPKDTLMISRTPEVTCVVVDVSHEDPEVKFNWYVDGVEVHNAKTKPREEQYNSTYRVVSVLTVLHQDWLNGKEYKCKVSNKALPAPIEKTISKAKGQPREPQVYTLPPSRDELTKNQVSLTCLVKGFYPSDIAVEWESNGQPENNYKTTPPVLDSDGSFFLYSKLTVDKSRWQQGNVFSCSVLHEALHSHHTQKSLSLSP chain 2: DIQMTQSPSSLSASVGDSVTITCQASTDISSHLNWYQQKPGKAPELLIYYGSHLLSGVPSRFSGSGSGTDFTFTISSLEAEDAATYYCGQGNRLPYTFGQGTKVEIERTVAAPSVFIFPPSDEQLKSGTASVVCLLNNFYPREAKVQWKVDNALQSGNSQESVTEQDSKDSTYSLSSTLTLSKADYEKHKVYACEVTHQGLSSPVTKSFNRGEC |
